Source: PMC10192046

Molecular target: T1, interferon regulatory factor 3 (human (endogenous in THP-1)), Q14653
T1 chain: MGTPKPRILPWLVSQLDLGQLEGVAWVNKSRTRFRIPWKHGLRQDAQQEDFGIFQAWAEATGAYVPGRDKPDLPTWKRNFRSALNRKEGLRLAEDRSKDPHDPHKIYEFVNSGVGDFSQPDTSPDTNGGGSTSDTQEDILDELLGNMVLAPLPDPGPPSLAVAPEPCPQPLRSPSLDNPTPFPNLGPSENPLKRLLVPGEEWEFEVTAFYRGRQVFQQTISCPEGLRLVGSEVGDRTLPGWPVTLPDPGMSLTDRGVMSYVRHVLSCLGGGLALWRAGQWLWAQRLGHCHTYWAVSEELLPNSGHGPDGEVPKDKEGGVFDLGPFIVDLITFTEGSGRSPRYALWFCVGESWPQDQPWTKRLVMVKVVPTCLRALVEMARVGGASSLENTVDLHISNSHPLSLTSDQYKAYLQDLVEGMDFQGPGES
Assay: native gel or EMSA
Conditions: remark: other sources report otherwise

stoichiometry N: 2
B1: interferon regulatory factor 3, Q14653 1-427 (natural protein)
chain: T1 chain
